We go through one protein from paper PMC2628428 (Molecular Microbiology, 2008).

This series concerns the molecule itself. Nature of the series: cross-linking.

B1: CetB (natural protein, UniProt Q0P967 1-165, looked up)
chain: MSREIFLQEDSLITSKTDLKGKIVYANDDFLKYAGYTMGEVLNKPHNIVRHEEMPKTVFKYLWDYMKEGKEIFAYVKNKTKDNNYYWVFANVTPSIDVNNNIIGYYSVRRMPNKSAISTIESLYSDLLRAEQQQGLNKGVEMLKNFCKDADKTYNELIFSLQEAK
On to B1, for which the “stoichiometry N” value turned out to be 2.
